Laboratory results as given in the Immune Epitope Database (IEDB).

Legend:
Assay in all cases: IEDB peptide-MHC binding, purified MHC/competitive/radioactivity; filed as Kd, often an IC50 or EC50 that approximates it; ≥ and ≤ were set here for values at or beyond the usual limits of such assays
HLA-A*02:03 = conditions: source organism: Dengue virus 4 Philippines/H241/1956
HLA-A*33:01 = target: HLA-A*33:01
HLA-A*31:01 = target: HLA-A*31:01
HLA-A*11:01 = target: HLA-A*11:01
HLA-A*03:01 = target: HLA-A*03:01
HLA-A*68:01 = target: HLA-A*68:01
HLA-A*02:06 = conditions: source organism: Dengue virus 2 Jamaica/1409/1983
[1] = source organism: Vaccinia virus WR
[2] = source organism: SARS coronavirus Tor2
[3] = source organism: Dengue virus 1 Brazil/97-11/1997
[4] = source organism: Dengue virus 4 Philippines/H241/1956
[5] = source organism: Vaccinia virus Copenhagen

With TMWHVTRGSV the Kd (HLA-A*02:03) was 24.3 nM.

TSDSKSIENK was tested, and the Kd (HLA-A*33:01; [1]) was no less than 34200 nM, the Kd (HLA-A*31:01; [1]) was 14400 nM and the Kd (HLA-A*11:01; [1]) was 534 nM. It also gave a Kd (HLA-A*03:01; [1]) of 10400 nM and a Kd (HLA-A*68:01; [1]) of 369 nM.

Sequence ALGGSIAVK has a Kd (HLA-A*33:01; [2]) of no less than 77700 nM, a Kd (HLA-A*31:01; [2]) of 12500 nM and a Kd (HLA-A*11:01; [2]) of 171 nM. The Kd (HLA-A*03:01; [2]) was 15.2 nM and the Kd (HLA-A*68:01; [2]) was 11200 nM.

With NSISARALK the Kd (HLA-A*33:01; [1]) was 6.53 nM, the Kd (HLA-A*31:01; [1]) was 11.1 nM and the Kd (HLA-A*11:01; [1]) was 3.99 nM. The Kd (HLA-A*03:01; [1]) was 78.7 nM and the Kd (HLA-A*68:01; [1]) was 4.9 nM.

DISEMGANFR showed a Kd (HLA-A*33:01; [3]) of 231 nM and a Kd (HLA-A*68:01; [3]) of 12.9 nM.

In the case of YFSKQTQTY, the Kd (HLA-A*33:01; [1]) is reported as no less than 30400 nM, the Kd (HLA-A*31:01; [1]) is reported as no less than 25000 nM and the Kd (HLA-A*11:01; [1]) is reported as no less than 27500 nM. For the same sequence, the Kd (HLA-A*03:01; [1]) was 17300 nM and the Kd (HLA-A*68:01; [1]) was 1730 nM.

In the case of FVSLVKKNK, the Kd (HLA-A*33:01; [1]) is reported as no less than 33600 nM, the Kd (HLA-A*31:01; [1]) is reported as no less than 77900 nM and the Kd (HLA-A*11:01; [1]) is reported as 120 nM. It also gave a Kd (HLA-A*03:01; [1]) of no less than 78000 nM and a Kd (HLA-A*68:01; [1]) of 215 nM.

Work on ATLTEGVYR yielded a Kd (HLA-A*31:01; [4]) of 7.26 nM.

Sequence DVPSPAAAQK has a Kd (HLA-A*68:01; [4]) of 192 nM.

TLCAIILGGL gave a Kd (HLA-A*02:03) of 3.7 nM.

Sequence TLVPQEHYVR has a Kd (HLA-A*33:01; [2]) of 1910 nM, a Kd (HLA-A*31:01; [2]) of 989 nM and a Kd (HLA-A*11:01; [2]) of 436 nM. The Kd (HLA-A*03:01; [2]) was 130 nM and the Kd (HLA-A*68:01; [2]) was 445 nM.

Work on NTPECPSASR yielded a Kd (HLA-A*68:01; source organism: Dengue virus 3 Martinique/1243/1999) of 4.83 nM.

Sequence LTIMDLHPGA has a Kd (HLA-A*02:06) of 105 nM.

Work on NTTYDFLARK yielded a Kd (HLA-A*33:01; [1]) of 4510 nM, a Kd (HLA-A*31:01; [1]) of 5550 nM and a Kd (HLA-A*11:01; [1]) of 31.8 nM. The Kd (HLA-A*03:01; [1]) was 691 nM and the Kd (HLA-A*68:01; [1]) was 9.58 nM.

LVFNSISAR gave a Kd (HLA-A*33:01; [1]) of 1040 nM, a Kd (HLA-A*31:01; [1]) of 2.5 nM and a Kd (HLA-A*11:01; [1]) of 27 nM. For the same sequence, the Kd (HLA-A*03:01; [1]) was 4.22 nM and the Kd (HLA-A*68:01; [1]) was 143 nM.

KSVLDIISSK was tested, and the Kd (HLA-A*33:01; [5]) was 19900 nM, the Kd (HLA-A*31:01; [5]) was 152 nM and the Kd (HLA-A*11:01; [5]) was 8.96 nM. For the same sequence, the Kd (HLA-A*03:01; [5]) was 24.5 nM and the Kd (HLA-A*68:01; [5]) was 267 nM.

In the case of VTNPAVLRK, the Kd (HLA-A*11:01; [3]) is reported as 16.5 nM and the Kd (HLA-A*03:01; [3]) is reported as 4.28 nM.

For AFQHQNSKK, the Kd (HLA-A*33:01; [2]) was no less than 22600 nM, the Kd (HLA-A*31:01; [2]) was 672 nM and the Kd (HLA-A*11:01; [2]) was 3000 nM. It also gave a Kd (HLA-A*03:01; [2]) of 13900 nM and a Kd (HLA-A*68:01; [2]) of 3920 nM.

ELGKKKTPR was tested, and the Kd (HLA-A*33:01; source organism: Dengue virus 2 Jamaica/1409/1983) was 116 nM.

SAGFSLWIY was tested, and the Kd (HLA-A*33:01; [2]) was 17300 nM, the Kd (HLA-A*31:01; [2]) was 393 nM and the Kd (HLA-A*11:01; [2]) was 116 nM. It also gave a Kd (HLA-A*03:01; [2]) of 572 nM and a Kd (HLA-A*68:01; [2]) of 4040 nM.

For VSQLAKRFSK, the Kd (HLA-A*11:01; source organism: Dengue virus 1 Nauru/West Pac/1974) was 126 nM.

KLKHRDGFTK gave a Kd (HLA-A*33:01; [5]) of no less than 29100 nM, a Kd (HLA-A*31:01; [5]) of 726 nM and a Kd (HLA-A*11:01; [5]) of 131 nM. It also gave a Kd (HLA-A*03:01; [5]) of 37.3 nM and a Kd (HLA-A*68:01; [5]) of no less than 38700 nM.
